Assay results published in publication PMC11024467, “A novel dual mechanism-of-action bispecific PD-1-IL-2v armed by a “βγ-only” interleukin-2 variant” (Frontiers in Immunology, 2024).

What was measured:
IL-2Rβγ complex [1] = molecular target: T1, IL-2Rβγ complex (UniProt P14784 27-551; P31785 23-369); experiment: cell-based or functional assay
IL-2Rβγ complex [2] = molecular target: T1, IL-2Rβγ complex; experiment: SPR; Biacore, IL-2 receptor proteins immobilised on a CM5 chip; wild-type IL-2 or variant 012 flowed over at stepwise concentrations for 120 s, then blank solution; 1:1 binding fit (steady state affinity for 001 on IL-2Rα); conditions: both partners purified
IL-2Rαβγ complex = IL-2Rαβγ complex (UniProt P01589 22-272; P14784 27-551; P31785 23-369); experiment: as above; conditions: both partners purified
Sequence of IL-2Rαβγ complex (P01589 22-272, chain 1 of 3): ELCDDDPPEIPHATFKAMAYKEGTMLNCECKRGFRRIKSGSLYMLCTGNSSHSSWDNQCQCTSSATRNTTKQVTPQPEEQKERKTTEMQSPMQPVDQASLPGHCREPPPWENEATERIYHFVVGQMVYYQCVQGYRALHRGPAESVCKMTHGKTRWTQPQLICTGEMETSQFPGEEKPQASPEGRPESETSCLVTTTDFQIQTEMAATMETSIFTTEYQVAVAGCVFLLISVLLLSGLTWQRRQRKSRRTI
Sequence of IL-2Rαβγ complex (P14784 27-551, chain 2 of 3): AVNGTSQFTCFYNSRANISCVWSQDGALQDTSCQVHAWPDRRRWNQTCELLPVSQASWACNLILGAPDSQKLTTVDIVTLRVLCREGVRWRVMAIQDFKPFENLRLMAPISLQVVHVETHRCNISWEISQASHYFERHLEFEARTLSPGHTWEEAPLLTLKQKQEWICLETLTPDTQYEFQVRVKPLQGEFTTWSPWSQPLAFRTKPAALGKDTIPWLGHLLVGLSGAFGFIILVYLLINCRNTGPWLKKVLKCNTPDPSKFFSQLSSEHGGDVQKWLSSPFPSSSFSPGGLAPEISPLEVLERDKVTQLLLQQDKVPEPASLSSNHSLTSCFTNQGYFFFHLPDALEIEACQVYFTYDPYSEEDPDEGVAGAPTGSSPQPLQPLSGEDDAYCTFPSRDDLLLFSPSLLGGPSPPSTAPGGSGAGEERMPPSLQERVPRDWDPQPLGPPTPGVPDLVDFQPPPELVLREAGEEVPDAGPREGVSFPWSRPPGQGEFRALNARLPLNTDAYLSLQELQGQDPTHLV
Sequence of IL-2Rαβγ complex (P31785 23-369, chain 3 of 3): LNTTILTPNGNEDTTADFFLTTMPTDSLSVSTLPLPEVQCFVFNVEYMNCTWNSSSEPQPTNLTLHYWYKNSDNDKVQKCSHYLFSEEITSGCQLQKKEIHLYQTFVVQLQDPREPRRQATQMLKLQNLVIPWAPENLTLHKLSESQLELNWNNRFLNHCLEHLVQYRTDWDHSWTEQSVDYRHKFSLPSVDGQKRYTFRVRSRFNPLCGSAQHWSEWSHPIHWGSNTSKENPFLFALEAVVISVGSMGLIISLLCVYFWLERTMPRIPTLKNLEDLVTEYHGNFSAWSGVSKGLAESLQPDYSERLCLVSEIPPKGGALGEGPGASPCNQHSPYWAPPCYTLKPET

T1 sequence (P14784 27-551, chain 1 of 2): as the sequence (P14784 27-551, chain 2 of 3) above
T1 sequence (P31785 23-369, chain 2 of 2): as the sequence (P31785 23-369, chain 3 of 3) above

B1: IL-2 variant 012 (ligand)
chain: PTSSSTKKTQLQLEHLLLDLQMILNGINNYKNPLRPRDLISNINVIVLELKGSETTELKHLQSLEEELKDLEEVLNLAQSKNFHTIVEFLNRWITFSQSIISTLT
notes: also called βγ-only IL-2v
For B1, the “EC50 of STAT5 activation (pSTAT5) in CD8 T cells of human PBMC (Table S4)” value (IL-2Rβγ complex [1]) was 18.6 nM, the “EC50 of STAT5 activation (pSTAT5) in NK cells of human PBMC (Table S4)” value (IL-2Rβγ complex [1]) was 5.11 nM and the Kd (IL-2Rβγ complex [2]) was 0.467 nM. It also gave a koff (IL-2Rβγ complex [2]) of 0.00106 s⁻¹, a Kd (IL-2Rαβγ complex) of 0.575 nM and a koff (IL-2Rαβγ complex) of 0.000732 s⁻¹.
